The supplement of paper PMC12764529
± gives the half width of the 95% confidence interval.

Columns and labels:
[1] = folding stability dG unfold from chymotrypsin proteolysis; higher = more stable
Method in brief: (§1)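 Unfolding free energy was derived, per protease or combined, against a sequence-predicted unfolded-state K50 and a shared folded-state K50, starting from K50 inferred by Bayesian fitting of sequencing counts. Digestion with trypsin and chymotrypsin was carried out on designed mini-proteins under 80 residues without cysteine in a PA-tagged cDNA display construct. Only designs with AlphaFold2 dimer inter-PAE above 15 were kept.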

[2] = folding stability dG unfold from trypsin proteolysis; higher = more stable
Method in brief: as §1

[3] = folding stability dG unfold (combined trypsin and chymotrypsin); higher = more stable
Method in brief: as §1

Sequence: SAGGSAGGSAGGPKVEIVEVTVEGDKVTIRVKNEETGEWVTLEVTLKDLPKVTFVLKPKSAGGSAGGSAGGS [r10_655_TrROS_Hall]
- folding stability dG unfold [1]: 1.16 ± 0.19 kcal/mol
- folding stability dG unfold [2]: 1.17 ± 0.032 kcal/mol
- folding stability dG unfold [3]: 1.19 ± 0.11 kcal/mol

Sequence: SAGGSAMVYLVTVTIKSEGKEVRYKEWVESDEPEKLIEKVKKEYPNEEIKVEITPFPSKEEAEKLLSAGGSA [r15_889_JUSTAS]
- folding stability dG unfold [1]: 2.48 ± 0.042 kcal/mol
- folding stability dG unfold [2]: 2.36 ± 0.098 kcal/mol
- folding stability dG unfold [3]: 2.41 ± 0.096 kcal/mol

Sequence: SGKKKIKIYVESIEVFEDGVVKIKVKAIFPDGSEEDVIAEIRVEPDEDGRPHLLVVIRIGDKDFLLVLDASA [r9_271_TrMRF]
- folding stability dG unfold [1]: 3.15 ± 0.059 kcal/mol
- folding stability dG unfold [2]: 2.81 ± 0.11 kcal/mol
- folding stability dG unfold [3]: 2.96 ± 0.17 kcal/mol

Sequence: SAGGSPVVLTKSPDGLLYVVTLTDPANSLDRVKAKVTAYDPNKPVPLGELTIELDPKTGKAVSALSSAGGSA [r2_324_JUSTAS]
- folding stability dG unfold [1]: 0.488 ± 0.089 kcal/mol
- folding stability dG unfold [2]: -0.543 ± 0.097 kcal/mol
- folding stability dG unfold [3]: 0.21 ± 0.093 kcal/mol

Sequence: SAGGSAGGSPPPRFRVVVVFEDGTRREFDLTPEELVAFAEVVPDVVVEELPPGEVRITVRLPGSAGGSAGGS [r20_231_TrMRF]
- folding stability dG unfold [1]: 3.11 ± 0.056 kcal/mol
- folding stability dG unfold [2]: 2.45 ± 0.081 kcal/mol
- folding stability dG unfold [3]: 2.91 ± 0.1 kcal/mol

Sequence: SAGGSAGGSAGMTVPPELSVTITRSPEGSLRVESPVPDRELTIPPDVPLTVSPDNVVTVASAGGSAGGSAGG [r17_49_JUSTAS]
- folding stability dG unfold [1]: 0.783 ± 0.017 kcal/mol
- folding stability dG unfold [2]: 0.451 ± 0.031 kcal/mol
- folding stability dG unfold [3]: 0.655 ± 0.041 kcal/mol

Sequence: SAGGMMYLIKVDTKEELKELAEAPGAKIVEEKEVNGKLYLLIEFPPGVTKIKIDVETRKIVEIEKLPSAGGS [r8_251_TrROS_Hall]
- folding stability dG unfold [1]: 1.58 ± 0.15 kcal/mol
- folding stability dG unfold [2]: 0.759 ± 0.13 kcal/mol
- folding stability dG unfold [3]: 1.37 ± 0.26 kcal/mol

Sequence: SAGGMKVTVYPDGTVSVEIEPGQTLTVSLGDKEYTVTAEYPSITITTTPVPVPPPAVPPENVDPSLVSAGGS [r16_600_JUSTAS]
- folding stability dG unfold [1]: 0.984 ± 0.051 kcal/mol
- folding stability dG unfold [2]: 1.54 ± 0.11 kcal/mol
- folding stability dG unfold [3]: 1.23 ± 0.15 kcal/mol

Sequence: SAGGSAEEAEELARRLAAELQAETGLEVTVEVRYDEETDTVVIRMTVRDRATGEERTLELTLRLPDSAGGSA [r15_464_TrROS_Hall]
- folding stability dG unfold [1]: 3.72 ± 0.052 kcal/mol
- folding stability dG unfold [2]: 3.04 ± 0.063 kcal/mol
- folding stability dG unfold [3]: 3.51 ± 0.059 kcal/mol

Sequence: SGLPEELARKLGLSAMTPLPDGTLVMALPDGTRVVVRIETTEVRLSPLGEPAVEVEVEVERLPAPAPEAASA [r9_648_JUSTAS]
- folding stability dG unfold [1]: 1.67 ± 0.018 kcal/mol
- folding stability dG unfold [2]: 1.5 ± 0.027 kcal/mol
- folding stability dG unfold [3]: 1.6 ± 0.048 kcal/mol

Sequence: SAGGGAAEEAARALIDEAKAALGLSEISEVVLTREGDGVTMTVRFPGKGLVITIDLAAGVVTAVEDVSAGGS [r16_171_JUSTAS]
- folding stability dG unfold [1]: 2.018 ± 0.0088 kcal/mol
- folding stability dG unfold [2]: 2.18 ± 0.034 kcal/mol
- folding stability dG unfold [3]: 2.11 ± 0.035 kcal/mol

Sequence: SAGGSAGGSAGGMIEKIEVTKLPDGTYKVTITIPLPNGPVITKTITIPPSETVEDAIAKLSAGGSAGGSAGG [r7_54_JUSTAS]
- folding stability dG unfold [1]: 2.194 ± 0.012 kcal/mol
- folding stability dG unfold [2]: 2.54 ± 0.04 kcal/mol
- folding stability dG unfold [3]: 2.31 ± 0.046 kcal/mol

Sequence: SAGGSAGGMSPDAKPIGEKTDESPGPEKVTTTTLKSPDPSLTYTVTTTTVGSTTTTTTTAVPVLSAGGSAGG [r6_923_JUSTAS]
- folding stability dG unfold [1]: 0.134 ± 0.4 kcal/mol
- folding stability dG unfold [2]: 0.439 ± 0.051 kcal/mol
- folding stability dG unfold [3]: 0.261 ± 0.1 kcal/mol

Sequence: SAGGSETVEIELGSEDGTVYKIEIERFPETGLLLIKVDGPDPKVIEKVVKELGVDVVEVLEDGYVLLASAGG [r13_937_TrMRF]
- folding stability dG unfold [1]: 1.89 ± 0.05 kcal/mol
- folding stability dG unfold [2]: 1.45 ± 0.059 kcal/mol
- folding stability dG unfold [3]: 1.78 ± 0.065 kcal/mol

Sequence: SAGGKRRTINFDIEGMTPEKFVHMARMAIRNLPDPEQVTITINMRNPMWRRWFIELAKELPGIEIEFMSAGG [r13_718_TrROS]
- folding stability dG unfold [1]: 3.43 ± 0.044 kcal/mol
- folding stability dG unfold [2]: 2.52 ± 0.061 kcal/mol
- folding stability dG unfold [3]: 3.19 ± 0.15 kcal/mol

Sequence: GMPYTVDVVIEEAEDGVIIPIKLSVDGALVAEAVAPVDPVTKKVVIKPGAASKEALDVALEKLKELGIEPGS [r1_455_TrMRF]
- folding stability dG unfold [1]: 0.537 ± 0.17 kcal/mol
- folding stability dG unfold [2]: -0.487 ± 0.4 kcal/mol
- folding stability dG unfold [3]: 0.162 ± 0.26 kcal/mol

Sequence: SAGGSAGGSATVTVERVGNRLLLSFPDGSYYVAELPGEAEVDLASGKITLPANSRVEPVPLERSAGGSAGGS [r20_158_TrMRF]
- folding stability dG unfold [1]: 1 ± 0.015 kcal/mol
- folding stability dG unfold [2]: 0.0598 ± 0.02 kcal/mol
- folding stability dG unfold [3]: 0.743 ± 0.029 kcal/mol

Sequence: SAGGSAGGSAVTVDPSSNVVTTTDPATGTSTVTTTPPLPNGTPVLTSTTTTDAAGTPTTTTVTSAGGSAGGS [r12_952_JUSTAS]
- folding stability dG unfold [1]: 1.38 ± 0.049 kcal/mol
- folding stability dG unfold [2]: 2.63 ± 0.12 kcal/mol
- folding stability dG unfold [3]: 2.04 ± 0.059 kcal/mol

Sequence: SAGGSAGGSAGGMTPIEVTVELEEPTRRTTRRFTFTSPEEVEAYLKALPASWRVTRVELRSAGGSAGGSAGG [r17_410_JUSTAS]
- folding stability dG unfold [1]: 1.82 ± 0.15 kcal/mol
- folding stability dG unfold [2]: 1.58 ± 0.038 kcal/mol
- folding stability dG unfold [3]: 1.66 ± 0.075 kcal/mol

Sequence: SAMKIIKINGKEVLLVKNENGEILIFVKNKKTNKYYLVKIEIKDGKIKIVEVKPIKTYSLEELLKEELLSAG [r14_384_TrROS_Hall]
- folding stability dG unfold [1]: 3.45 ± 0.023 kcal/mol
- folding stability dG unfold [2]: 3.22 ± 0.16 kcal/mol
- folding stability dG unfold [3]: 3.42 ± 0.11 kcal/mol

Sequence: SAGGSAGGSAAPVVREIEIDLPYPDGSPLTVEKVTEEPAPGTVHYEIKLPDGTVITRTVPTFSAGGSAGGSA [r18_370_JUSTAS]
- folding stability dG unfold [1]: -1.03 ± 0.39 kcal/mol
- folding stability dG unfold [2]: -0.92 ± 0.3 kcal/mol
- folding stability dG unfold [3]: -0.797 ± 0.24 kcal/mol
